# Assay results: paper doi:10.1101/251942
# Target: Brucella adipic acid activated regulator (BaaR), residues 21-284 (Brucella abortus)
# Assay: crystal structure
substance,measurement,value
"Brucella adipic acid activated regulator (BaaR), residues 21-284 (domain or fragment)",stoichiometry N,2
